We go through one substance from US20190330277A1.

The target of assay [1] is 391-2-DS-Cav1-BZGJ9deleteFS. The experiment in a line: ELISA, variant from culture supernatant on Ni-NTA plate [continued]. Background: An ELISA detects its analyte on a solid surface through an enzyme-linked reagent.
Assay [2] deals with RB94 sc9 DS-CAV1 N183GC-N428C L373R Long. The experiment in a line: ELISA, variant from culture supernatant on Ni-NTA plate.
For assay [3], the target named is 391-2-DS-Cav1-sc9 99C-362C. The description is as above.
Assay [4] deals with 391-2 sc9 DS-Cav1 98C-362C. The description is as above.
Assay [5] concerns the target 391-2-DS-Cav1-sc9 99C-361C. The description is as above.
For assay [6], the target named is 391-2-DS-Cav1-sc9deleteFS 98C-362C. The assay is described as above.
The target in assay [7] is 391-2-DS-Cav1_ sc9_I28C-G464C. The assay is described as above.
In assay [8] the target is 391-2-DS-Cav1-sc9 100C-362C. The assay is described as above.
The target of assay [9] is RB94 sc9 DS-CAV1 N183GC-N428C L373R Long K226L. The assay is described as above.
The target in assay [10] is RB94 sc9 DS-CAV1 N183GC-N428C L373R. Described as above.

Take D25 antibody: the ELISA binding value in [1] turned out to be 0.119; in [2] it was 0.26; in [3] it was 0.249; in assay [4], 0.433; in [5], 0.225; in [6], 0.362. For the same substance, the ELISA binding value in [7] was determined as 0.202; in assay [8], 0.274; in assay [9], 0.206; in [10] it was 0.187.
